Columns and labels:
CD20 (human) [1] = molecular target: CD20 (human) (UniProt P11836); test: cell-based or functional assay
CD20 (human) [2] = molecular target: CD20 (human) (UniProt P11836); test: flow cytometry on Daudi cells, PE-anti-Fab
CD20 (human) [3] = molecular target: CD20 (human) (UniProt P11836); test: Scatchard analysis, radio-iodinated sample on Raji cells; apparent association constant
[4] = molecular target: gp41 of HIV-1 6794 (HIV-1 6794); test: cell-based or functional assay
[5] = molecular target: gp41 of HIV-1IIIB (HIV-1IIIB) (UniProt P03377); test: cell-based or functional assay

Row | Substance | EC50, inhibition of proliferation of Daudi cells (4-d MTS assay) (CD20 (human) [1]) [pM] | EC50, inhibition of proliferation of Raji cells (4-d MTS assay) (CD20 (human) [1]) [pM] | EC50, inhibition of proliferation of Ramos cells (4-d MTS assay) (CD20 (human) [1]) [pM] | EC50, viable cell counting assay, Ramos, 3 days (CD20 (human) [1]) [pM] | inhibition of cell proliferation at 0.5 nmol/L, viable cell counting, Raji and Ramos (CD20 (human) [1]) [%] | greater fluorescence intensity than veltuzumab (PE-anti-Fab) (CD20 (human) [2]) [%] | Ka (CD20 (human) [3]) [M⁻¹] | EC50 estimated, neutralization of HIV-1 6794 in PBMCs, 50TCID50 [4] [pM] | EC50 estimated, neutralization of HIV-1 6794 in PBMCs, 100TCID50 [4] [pM] | EC50 estimated, neutralization of HIV-1IIIB in Jurkat T cells, 50TCID50 [5] [pM] | EC50 estimated, neutralization of HIV-1IIIB in Jurkat T cells, 100TCID50 [5] [pM]
1 | Hex-hA20 (hexavalent anti-CD20 antibody, six Fabs with one Fc) | 150 | 64 | 150 | 170 | > 50 | 40 to 50 | 3.9e+08 | – | – | – | –
2 | T20 HIV fusion inhibitor (enfuvirtide, FUZEON) (peptide) | – | – | – | – | – | – | – | 9000 | 9000 | 9000 | –
3 | hLL2-(T20)4 | – | – | – | – | – | – | – | < 200 | < 200 | < 200 | 100
